From article PMC3141235 come the findings set out here.

The term Kd denotes a measure of binding affinity in units of concentration. A high value points to weaker binding.

This experiment addresses yAsf1 mutant V94R labeled with Alexa Fluor 532 (S. cerevisiae). The experiment is described as follows: other fluorescence titration.

As for “X. laevis H3^C110A / H4^T71C labeled with the Qsy9 fluorescence quencher (complex)”, the Kd is 290 nM.
